Source: publication PMC3635657 (Biochemical Journal, 2013)

B1: TorAΔSP (TorA Δ2–39, lacking its entire Tat signal peptide) (domain or fragment, E. coli, UniProt P33225 40-848, looked up)
chain: AQAATDAVISKEGILTGSHWGAIRATVKDGRFVAAKPFELDKYPSKMIAGLPDHVHNAARIRYPMVRVDWLRKRHLSDTSQRGDNRFVRVSWDEALDMFYEELERVQKTHGPSALLTASGWQSTGMFHNASGMLAKAIALHGNSVGTGGDYSTGAAQVILPRVVGSMEVYEQQTSWPLVLQNSKTIVLWGSDLLKNQQANWWCPDHDVYEYYAQLKAKVAAGEIEVISIDPVVTSTHEYLGREHVKHIAVNPQTDVPLQLALAHTLYSENLYDKNFLANYCVGFEQFLPYLLGEKDGQPKDAAWAEKLTGIDAETIRGLARQMAANRTQIIAGWCVQRMQHGEQWAWMIVVLAAMLGQIGLPGGGFGFGWHYNGAGTPGRKGVILSGFSGSTSIPPVHDNSDYKGYSSTIPIARFIDAILEPGKVINWNGKSVKLPPLKMCIFAGTNPFHRHQQINRIIEGLRKLETVIAIDNQWTSTCRFADIVLPATTQFERNDLDQYGNHSNRGIIAMKQVVPPQFEARNDFDIFRELCRRFNREEAFTEGLDEMGWLKRIWQEGVQQGKGRGVHLPAFDDFWNNKEYVEFDHPQMFVRHQAFREDPDLEPLGTPSGLIEIYSKTIADMNYDDCQGHPMWFEKIERSHGGPGSQKYPLHLQSVHPDFRLHSQLCESETLRQQYTVAGKEPVFINPQDASARGIRNGDVVRVFNARGQVLAGAVVSDRYAPGVARIHEGAWYDPDKGGEPGALCKYGNPNVLTIDIGTSQLAQATSAHTTLVEIEKYNGTVEQVTAFNGPVEMVAQCEYVPASQVKS
B3: TorD^His (hexahistidine-tagged TorD) (natural protein, E. coli, UniProt P36662 1-199, looked up)
chain: MTTLTAQQIACVYAWLAQLFSRELDDEQLTQIASAQMAEWFSLLKSEPPLTAAVNELENRIATLTVRDDARLELAADFCGLFLMTDKQAALPYASAYKQDEQEIKRLLVEAGMETSGNFNEPADHLAIYLELLSHLHFSLGEGTVPARRIDSLRQKTLTALWQWLPEFVARCRQYDSFGFYAALSQLLLVLVECDHQNR

Experiments:
[1] = target: TorA signal peptide signal peptide (Escherichia coli) (UniProt P33225); conditions: cited from earlier work
[2] = target: TorD^His (hexahistidine-tagged TorD) (E. coli) (UniProt P36662); assay: SEC-MALS
[3] = target: B3; assay: SEC-MALS
[4] = target: B1; assay: pull-down

TorD (from UniProt P36662)
Kd [1]: 59 nM

TorA, full-length precursor (trimethylamine N-oxide reductase), cofactor-free (from UniProt P33225 40-848) (natural protein)
stoichiometry N [2]: 1

B1
stoichiometry N [3]: 1

B2: TorAΔCT (TorA Δ676–848, lacking its entire C-terminal Domain IV) (domain or fragment, E. coli, UniProt P33225 1-675, looked up)
chain: MNNNDLFQASRRRFLAQLGGLTVAGMLGPSLLTPRRATAAQAATDAVISKEGILTGSHWGAIRATVKDGRFVAAKPFELDKYPSKMIAGLPDHVHNAARIRYPMVRVDWLRKRHLSDTSQRGDNRFVRVSWDEALDMFYEELERVQKTHGPSALLTASGWQSTGMFHNASGMLAKAIALHGNSVGTGGDYSTGAAQVILPRVVGSMEVYEQQTSWPLVLQNSKTIVLWGSDLLKNQQANWWCPDHDVYEYYAQLKAKVAAGEIEVISIDPVVTSTHEYLGREHVKHIAVNPQTDVPLQLALAHTLYSENLYDKNFLANYCVGFEQFLPYLLGEKDGQPKDAAWAEKLTGIDAETIRGLARQMAANRTQIIAGWCVQRMQHGEQWAWMIVVLAAMLGQIGLPGGGFGFGWHYNGAGTPGRKGVILSGFSGSTSIPPVHDNSDYKGYSSTIPIARFIDAILEPGKVINWNGKSVKLPPLKMCIFAGTNPFHRHQQINRIIEGLRKLETVIAIDNQWTSTCRFADIVLPATTQFERNDLDQYGNHSNRGIIAMKQVVPPQFEARNDFDIFRELCRRFNREEAFTEGLDEMGWLKRIWQEGVQQGKGRGVHLPAFDDFWNNKEYVEFDHPQMFVRHQAFREDPDLEPLGTPSGLIEIYSKTIADMNYDDCQGHPMWFEK
stoichiometry N [3]: 1

B3
binding result [4]: binds
